The record followed here is patent EP0730609B1.

The assay deals with recombinant human IL4 (E. coli, non-glycosylated) (human) (UniProt P05112). The assay is described as follows: cell-based or functional assay.
Sequence of recombinant human IL4 (E. coli, non-glycosylated) (human) (P05112 25-153 limits assumed): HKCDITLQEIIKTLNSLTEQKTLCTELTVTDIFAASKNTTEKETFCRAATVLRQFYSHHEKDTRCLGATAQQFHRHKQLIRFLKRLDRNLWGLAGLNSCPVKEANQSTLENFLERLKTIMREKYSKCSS

B1: humanized 3B9 (IgG4) (antibody, from another filing, V domains shown)
VH: QVTLRESGPALVKPTQTLTLTCTFSGFSLSTSGMGVSWIRQPPGKGLEWLAHIYWDDDKRYNPSLKSRLTISKDTSRNQVVLTMTNMDPVDTATYYCARRETVFYWYFDVWGRGTPVTVSS
VL: IVMTQSPDSLAVSLGERATINCKASQSVDYDGDSYMNWYQQKPGQPPKLLIYAASNLESGVPDRFSGSGSGTDFTLTISSLQAEDVAVYYCQQSNEDPPRFGGGTKVEIKR
For the molecule B1, the B cell (inhibition of IL4-stimulated B lymphocyte proliferation), IC50 came out at 0.079 nM; the IgE synthesis (inhibition of IL4-driven IgE secretion), IC50 stood at 0.406 nM; the T cell (inhibition of IL4-stimulated T lymphocyte proliferation), IC50 came out at 0.04 nM.
